Non-standard residues stand in square brackets, D forms with d. No end group written: not given here. *: point of attachment. NMeF = CN[C@@H](Cc1ccccc1)C(=O)O; NHCH2CH2OH = OCCN* Bounds are passed on as bounds.

Three molecules from patent publication US6258556, “cDNA and genomic clones encoding human µ opiate receptor and the purified gene product” (The United States of America as represented by the …, dated 2001) can be followed below.

The target in experiment [1] is human µ opiate receptor (human). Nature of the experiment: displacement of [3H]DAMGO from COS cells expressing hµOR1; paragraph 40 says 'low affinities', CLM-00014 calls the value a KD. As to the method: (§1) COS cells were transfected by electroporation with 20 µg/10^7 cells of plasmid pcDNA1hµOR1, grown for two to three days and tested for opiate receptor expression by radioligand binding as described, except that whole cell suspensions were used. Adenyl cyclase activities were assessed by radioimmunoassay as described. Cells transfected with the pcDNA1 vector alone served as negative controls.

Experiment [2] has the same target. Nature of the experiment: displacement of [3H]DAMGO from COS cells expressing hµOR1; 'low affinities of less than 100 nM' is read as weaker than 100 nM. As to the method:
as §1

For experiment [3] the target is unchanged. Nature of the experiment: [3H]DAMGO binding to COS cells expressing hµOR1, with against without 50 µM Gpp(NH)p. As to the method: as §1
Experiment [4] has the same target. Briefly: saturation radioligand binding, whole COS cells transfected with pcDNA1hµOR1. As to the method: as §1
Experiment [5] shares this target. Nature of the experiment: [3H]DAMGO binding to COS cells expressing hµOR1, with sodium chloride as low as 5 mM; CLM-00019 ties this to DAMGO. As to the method: as §1

YGGFLRRIRPKLKWDNQ [dynorphin A 1-17] had a Kd in experiment [1] of 284 nM.

Regarding YXGFX (D-penicillamine at 2 and at 5 (written X)) [DPDPE (D-pen^2, D-pen^5 enkephalin)], the Kd in experiment [2] is greater than 100 nM.

B1: (D-ala^2, N-methyl-phe^4, glyol^5) enkephalin (peptide)
peptide: Y[dA]G[NMeF][NHCH2CH2OH]
modifications: not fully specified (C-terminus); printed as (D-ala^2, N-methyl-phe^4, glyol^5) enkephalin; also: [3H] label in binding assays
Consider B1, for which, in experiment [3], the “fold reduction of affinity with 50 µM Gpp(NH)p” value was greater than 3 fold. In experiment [4], this molecule displayed a Kd of 1.2 nM. In addition, the “fold reduction of binding affinity with 5 mM sodium chloride” value in experiment [5] came out at 2 fold.
